# Measured values: publication doi:10.1101/305292
# Biological target: GFP-tagged epidermal growth factor receptor (EGFR-GFP) (human) (UniProt P00533)
# Assay: dual-colour single-molecule TIRF colocalisation with step-wise photobleaching
substance,measurement,value
tetramethylrhodamine-labelled epidermal growth factor (EGF-TMR) (ligand),"percent of EGFR foci colocalised with EGF, across 60 min",40%
same,percent of all EGFR molecules in foci colocalised with EGF,64%
